Reference: US20210395344A1 (TWIST BIOSCIENCE, published 2021)
Where two headings read alike, the source gives them in different places.

Columns and labels:
[1] = molecular target: T1, SARS-CoV-2 Spike Glycoprotein S1 (subunit 1) (SARS-CoV-2, UniProt P0DTC2 16-685); experiment: screening phage ELISA, mean
T1 construct: also called S1 Monomer; SARS-CoV-2 S1

[2] = molecular target: T1, SARS-CoV-2 Spike Glycoprotein S1 …; experiment: screening phage ELISA, mean; remark: listed apart in the source
[3] = molecular target: T1, SARS-CoV-2 Spike Glycoprotein S1 …; experiment: column Inhibitor IC50 (assay not explained)
[4] = molecular target: T1, SARS-CoV-2 Spike Glycoprotein S1 …; experiment: column DC/S1 (format not explained)
[5] = molecular target: T1, SARS-CoV-2 Spike Glycoprotein S1 …; experiment: ELISA binding titration
[6] = molecular target: T2, COVID S1 RBD Fc fusion (Antigen 1) (SARS-CoV-2, UniProt P0DTC2 319-541); experiment: phage ELISA
T2 construct: domain: RBD

S1-Fc [7] = molecular target: T3, S1-Fc (SARS-CoV-2, UniProt P0DTC2 16-685); experiment: phage ELISA
[8] = molecular target: T4, COVID S1 RBM Fc fusion (Antigen 2) (SARS-CoV-2, UniProt P0DTC2 437-508); experiment: phage ELISA
T4 construct: domain: RBM

[9] = molecular target: T2, COVID S1 RBD Fc fusion (Antigen 1); experiment: phage ELISA; remark: listed apart in the source
S1-Fc [10] = molecular target: T3, S1-Fc; experiment: phage ELISA; remark: listed apart in the source
[11] = molecular target: T4, COVID S1 RBM Fc fusion (Antigen 2); experiment: phage ELISA; remark: listed apart in the source
[12] = molecular target: T5, SARS-CoV-2 S1 (antigen of the Carterra SPR kinetics) (SARS-CoV-2, UniProt P0DTC2 16-685); experiment: Carterra SPR
[13] = molecular target: T5, SARS-CoV-2 S1 (antigen of the Carterra …); experiment: Carterra SPR; remark: listed apart in the source

B1: 1-52 (antibody, V domains shown)
VH: EVQLLESGGGLVQPGGSLRLSCAASGFTFSNYAMSWVRQAPGKGLEWVSAISGSAGSTYYADSVKGRFTISRDNSKNTLYLQMNSLRAEDTAVYYCARVRQGLRRTWYYFDYWGQGTLVTVSS
VL: QSALTQPASVSGSPGQSITISCTGTSSDVGSSNLVSWYQQHPGKAPKLMIYEGSKRPSGVSNRFSGSKSGNTASLTISGLQAEDEADYYCCSYAGSLYVFGGGTKLTVL
ELISA (Avg) [1]: 3.5 | ELISA (Avg) [2]: 3.5 | IC50 [3]: 740 nM

B2: 1-21 (antibody, V domains shown)
VH: EVQLLESGGGLVQPGGSLRLSCAASGFTFSSYTMSWVRQAPGKGLEWVSIISGSGGSTYYADSVKGRFTISRDNSKNTLYLQMNSLRAEDTAVYYCAREGYRDYLWYFDLWGQGTLVTVSS
VL: QSALTQPASVSGSPGQSITISCTGTSSDVGSNNLVSWYQQHPGKAPKLMIYEGNKRPSGVSNRFSGSKSGNTASLTISGLQAEDEADYYCCSYAGSVVFGGGTKLTVL
ELISA (Avg) [1]: 47.6 | ELISA (Avg) [2]: 47.6 | IC50 [3]: 6.7 nM

B3: 1-24 (antibody, V domains shown)
VH: EVQLLESGGGLVQPGGSLRLSCAASGFTFSSYAMNWVRQAPGKGLEWVSIISGSGGSTYYADSVKGRFTISRDNSKNTLYLQMNSLRAEDTAVYYCAREGYRDYLWYFDLWGQGTLVTVSS
VL: QSALTQPASVSGSPGQSITISCTGTSSDVGYYNLVSWYQQHPGKAPKLMIYEGNKRPSGVSNRFSGSKSGNTASLTISGLQAEDEADYYCCSYAGGSVVFGGGTKLTVL
ELISA (Avg) [1]: 32.9 | ELISA (Avg) [2]: 32.9 | Kd [4]: 2040 nM

B4: 1-22 (antibody, V domains shown)
VH: EVQLLESGGGLVQPGGSLRLSCAASGFTFSSYAMNWVRQAPGKGLEWVSIISGSGGSTYYADSVKGRFTISRDNSKNTLYLQMNSLRAEDTAVYYCAREGYRDYLWYFDLWGQGTLVTVSS
VL: QSALTQPASVSGSPGQSITISCTGTSTDVGSYNLVSWYQQHPGKAPKLMIYEGSQRPSGVSNRFSGSKSGNTASLTISGLQAEDEADYYCCSYAGSSTVFGGGTKLTVL
EC50 [5]: 6.55 nM | ELISA (Avg) [1]: 40.6 | ELISA (Avg) [2]: 40.6 | IC50 [3]: 73.2 nM

B5: 1-8 (antibody, V domains shown)
VH: EVQLLESGGGLVQPGGSLRLSCAASGFTFSSYDMSWVRQAPGKGLEWVSVISGSGGSTYYADSVKGRFTISRDNSKNTLYLQMNSLRAEDTAVYYCAKGPLVGWYFDLWGQGTLVTVSS
VL: QSALTQPASVSGSPGQSITISCTGTSNDVGSYNLVSWYQQHPGKAPKLMIYEGSKRPSGVSNRFSGSKSGNTASLTISGLQAEDEADYYCCSYAGSRYVVFGGGTKLTVL
ELISA (Avg) [1]: 19.3 | ELISA (Avg) [2]: 19.3 | IC50 [3]: 97.3 nM

B6: 1-47 (antibody, V domains shown)
VH: EVQLLESGGGLVQPGGSLRLSCAASGFTFSSQAMSWVRQAPGKGLEWVSAISGSGGGTYYADSVKGRFTISRDNSKNTLYLQMNSLRAEDTAVYYCAKDRRFGEFDPWGQGTLVTVSS
VL: QSALTQPASVSGSPGQSITISCTGTSSGVGSYNLVSWYQQHPGKAPKLMIYEGIKRPSGVSNRFSGSKSGNTASLTISGLQAEDEADYYCCSYAGSSSFVVFGGGTKLTVL
notes: also called variant 1-47
ELISA fold over background [6]: 5.5 fold over background | ELISA fold over background (S1-Fc [7]): 1.2 fold over background | ELISA fold over background [8]: 0.9 fold over background | ELISA fold over background [9]: 5.5 fold over background | ELISA fold over background (S1-Fc [10]): 1.2 fold over background | ELISA fold over background [11]: 0.9 fold over background | koff [12]: 0.24 s⁻¹ | kon [12]: 6320 M⁻¹ s⁻¹ | Kd [13]: 38000 nM | koff [13]: 0.24 s⁻¹ | kon [13]: 6320 M⁻¹ s⁻¹

B7: 1-26 (antibody, V domains shown)
VH: EVQLLESGGGLVQPGGSLRLSCAASGFTFSSYAISWVRQAPGKGLEWVSAISGSGYSTYYADSVKGRFTISRDNSKNTLYLQMNSLRAEDTAVYYCARGAPDSSGYYFQGEVYFDYWGQGTLVTVSS
VL: QSALTQPASVSGSPGQSITISCTGTSSDVGGYNLVSWYQQHPGKAPKLMIYEGTKRPSGVSNRFSGSKSGNTASLTISGLQAEDEADYYCCSFVRSSAHVVFGGGTKLTVL
EC50 [5]: 48.5 nM | ELISA (Avg) [1]: 19.5 | ELISA (Avg) [2]: 19.5 | IC50 [3]: 8 nM

B8: 1-30 (antibody, V domains shown)
VH: EVQLLESGGGLVQPGGSLRLSCAASGFTFSSYAMTWVRQAPGKGLEWVSAISGSGGSTFYADSVKGRFTISRDNSKNTLYLQMNSLRAEDTAVYYCTRPPYGDYGDYWGQGTLVTVSS
VL: QSALTQPASVSGSPGQSITISCTGTSRDVGSYNLVSWYQQHPGKAPKLMIYEGTKRPSGVSNRFSGSKSGNTASLTISGLQAEDEADYYCCSYAGSRTPVVFGGGTKLTVL
ELISA (Avg) [1]: 29.5 | ELISA (Avg) [2]: 29.5 | Kd [4]: 4.7 nM | IC50 [3]: 25.3 nM

B9: 1-10 (antibody, V domains shown)
VH: EVQLLESGGGLVQPGGSLRLSCAASGFTFSSYDMSWVRQAPGKGLEWVSVISGSGGSTYYADSVKGRFTISRDNSKNTLYLQMNSLRAEDTAVYYCAKGPLVGWYFDLWGQGTLVTVSS
VL: QSALTQPASVSGSPGQSITISCTGTSSNVGSYNLVSWYQQHPGKAPKLMIYEGTKRPSGVSNRFSGSKSGNTASLTISGLQAEDEADYYCCSYAGSSSFVVFGGGTKLTVL
ELISA (Avg) [1]: 16.9 | ELISA (Avg) [2]: 16.9 | IC50 [3]: 17.7 nM

B10: 1-10 (antibody, V domains shown)
VH: EVQLLESGGGLVQPGGSLRLSCAASGFTFSSYDMSWVRQAPGKGLEWVSVISGSGGSTYYADSVKGRFTISRDNSKNTLYLQMNSLRAEDTAVYYCAKGPLVGWYFDLWGQGTLVTVSS
VL: QSALTQPASVSGSPGQSITISCTGTSSNVGSYNLVSWYQQHPGKAPKLMIYEGTKRPSGVSNRFSGSKSGNTASLTISGLQAEDEADYYCCSYAGSSSFVVFGGGTKLTVL
notes: also called variant 1-10
ELISA fold over background [6]: 17.4 fold over background | ELISA fold over background (S1-Fc [7]): 1.3 fold over background | ELISA fold over background [8]: 1.1 fold over background | ELISA fold over background [9]: 17.4 fold over background | ELISA fold over background (S1-Fc [10]): 1.3 fold over background | ELISA fold over background [11]: 1.1 fold over background | koff [12]: 0.147 s⁻¹ | kon [12]: 1.04e+06 M⁻¹ s⁻¹ | Kd [13]: 142 nM | koff [13]: 0.147 s⁻¹ | kon [13]: 1.04e+06 M⁻¹ s⁻¹

B11: 1-5 (antibody, V domains shown)
VH: EVQLLESGGGLVQPGGSLRLSCAASGFTFSSQAMSWVRQAPGKGLEWVSAISGSGGGTYYADSVKGRFTISRDNSKNTLYLQMNSLRAEDTAVYYCAKDRRFGEFDPWGQGTLVTVSS
VL: QSALTQPASVSGSPGQSITISCTGTSSGVGSYNLVSWYQQHPGKAPKLMIYEASKRPSGVSNRFSGSKSGNTASLTISGLQAEDEADYYCCSYAGSYTFAVFGGGTKLTVL
EC50 [5]: 7.83 nM | ELISA (Avg) [1]: 20.6 | ELISA (Avg) [2]: 20.6

B12: 1-7 (antibody, V domains shown)
VH: EVQLLESGGGLVQPGGSLRLSCAASGFTFSSYDMSWVRQAPGKGLEWVSVISGSGGSTYYADSVKGRFTISRDNSKNTLYLQMNSLRAEDTAVYYCAKGPLVGWYFDLWGQGTLVTVSS
VL: QSALTQPASVSGSPGQSITISCTGTSSDFGSYNLVSWYQQHPGKAPKLMIYEGNKRPSGVSNRFSGSKSGNTASLTISGLQAEDEADYYCCSYAGSSTFVVFGGGTKLTVL
EC50 [5]: 95.7 nM | ELISA (Avg) [1]: 22.5 | ELISA (Avg) [2]: 22.5

B13: 1-3 (antibody, V domains shown)
VH: EVQLLESGGGLVQPGGSLRLSCAASGFTFSSQAMSWVRQAPGKGLEWVSAISGSGGGTYYADSVKGRFTISRDNSKNTLYLQMNSLRAEDTAVYYCAKDRRFGEFDPWGQGTLVTVSS
VL: QSALTQPASVSGSPGQSITISCTGISSDVGSYNLVSWYQQHPGKAPKLMIYEGTKRPSGVSNRFSGSKSGNTASLTISGLQAEDEADYYCCSYAGSSSFVVFGGGTKLTVL
EC50 [5]: 0.133 nM | ELISA (Avg) [1]: 23.9 | ELISA (Avg) [2]: 23.9 | Kd [4]: 253 nM | IC50 [3]: 15.7 nM

B14: 1-7 (antibody, V domains shown)
VH: EVQLLESGGGLVQPGGSLRLSCAASGFTFSSYDMSWVRQAPGKGLEWVSVISGSGGSTYYADSVKGRFTISRDNSKNTLYLQMNSLRAEDTAVYYCAKGPLVGWYFDLWGQGTLVTVSS
VL: QSALTQPASVSGSPGQSITISCTGTSSDFGSYNLVSWYQQHPGKAPKLMIYEGNKRPSGVSNRFSGSKSGNTASLTISGLQAEDEADYYCCSYAGSSTFVVFGGGTKLTVL
notes: also called variant 1-7
ELISA fold over background [6]: 3.3 fold over background | ELISA fold over background (S1-Fc [7]): 1.7 fold over background | ELISA fold over background [8]: 1.6 fold over background | ELISA fold over background [9]: 3.3 fold over background | ELISA fold over background (S1-Fc [10]): 1.7 fold over background | ELISA fold over background [11]: 1.6 fold over background | koff [12]: 0.17 s⁻¹ | kon [12]: 1.34e+06 M⁻¹ s⁻¹ | Kd [13]: 127 nM | koff [13]: 0.17 s⁻¹ | kon [13]: 1.34e+06 M⁻¹ s⁻¹

B15: 1-9 (antibody, V domains shown)
VH: EVQLLESGGGLVQPGGSLRLSCAASGFTFSSYDMSWVRQAPGKGLEWVSVISGSGGSTYYADSVKGRFTISRDNSKNTLYLQMNSLRAEDTAVYYCAKGPLVGWYFDLWGQGTLVTVSS
VL: QSALTQPASVSGSPGQSITISCTGTSSDVGDYNLVSWYQQHPGKAPKLMIYEGSNRPSGVSNRFSGSKSGNTASLTISGLQAEDEADYYCCSYAGSSSFVVFGGGTKLTVL
ELISA (Avg) [1]: 18.5 | ELISA (Avg) [2]: 18.5 | IC50 [3]: 282 nM
